These are literature values, as cited in patent EP3351262A1, “CURAGLUTIDE FOR IN TREATMENT OF PREDIABETES, DIABETES, OBESITY AND METABOLIC DISEASES ASSOCIATED THERETO” (Istanbul Universitesi Rektorlugu, priority 2016, dated 2018).

For this data set the following is noted: in vivo; cited from earlier work.

Consider “GLP-1: glucagon like peptide-1, a neuroendocrine (intestinal) hormone with incretin effect”, for which the half-life in plasma was 12 to 30 min.
